A short description of the data set: soluble on expression in E. coli; label from the status in PepcDB or PDB records.
Take “MNLVSLRDSPQYLERAIAYFQSKWGNENTKMVYDNCFRHSLNAENPIPQWYLLMNGDEIIGCAGLTSNDFNSRADLYPWLVALFIEEKYRGNHYANLLIEQAKKDTLKFGFSKLYLSTSHTSYYERLGFTYIGDCWHPWGESSRVYEIILKF”: the “soluble on expression in E. coli” value is on record as “not soluble”.

Consider “MAHTKKRIFDGLYAQLEETDGNVVLFSAKGEPSVIFEITNPVQQLCTDAEQYMLFQDVLSNVVQTLGEGYALQKQDVLCKQSYHHEVPEDAEFLTKSYFRYFEGREFTEIRTYLILTQEAQRSQFVQYDPKKWLDFHSKVSKVSDILKEKNIKYRKLSKEEVNEYCHRFMAFQFRHGPFSMTNFKASDEYLKIGDRVVRSYPLVDIDEINLPSLVKPYTQMNINGYGIATDLFSFLTSVPHADCVVFNQVVQIPNQRKLLRKLQAKAKRHGSMPDPSNKIAKEDIEEVLDRLAVDSTQLVYCNFNILVSCLVDKVTPVTSYLETKLYECGIMPSRTAYNQLELFTDSFPGNGYAFNPDYDLFLTLSDVALCFFFKEHLKGSEDTPLTTYYTDRQGLPVCIDITGKEGKVKMTDNANFFCIGPSGSGKSFHMNSVVRQLLEQNTDVVMVDTGDSYEGICGYYKGTYISYSKEKPISMNPFKVTKEEYDLNFGEKKNFLKSLIFLIFKGNEFPSKIEDMLINQTIVEYYEAYFHPFTKFTEKEREGLRQKLLVASKMEEDYDKFSHSMEDIDAQIREAEMDKQAESRALMLPAEARRLKLLRQCRSLYALAQDEAASKGEKERALQIIENYKKELYNNSMLIKIDKQIDHIEEQKRRLKVRVLSFNSYYEFALERIPQIVAQEKIQFNIRDFAAILKQFYRGGELEMTLNSDLNVNLFDEQFIVFEIDKIKDDPVLFPIVVLIIMDVFLQKMRIKKGRKALIIEEAWL”, for which the “soluble on expression in E. coli” value is reported as “not soluble”.

In the case of “MGSDKIHHHHHHMQFTDAVTVAGTRRTADGYLVATARAVRTGIQLYAGHEVGKPDQEVVRVYRAADQVFSTESLQSFSHAPITVDHPDEEVSAENWKALSVGEVSTAAKQDGQWVMLPLILKDAAAIKSVMDGKRELSAGYTCDLDFTPGVTADGEPYDAQQRGIRINHLALVDRARAGSKARIGDDGGPWGAAPISTTDKETITMSDALRTVVVDGLSVTTTDQGAQAISKLLKDLESSAAKLVDAQTRYQAALAAKDADLAKAHAERDAANAKVLSDADLDKRVAARADLITKAKAIAKDVKTDGLSDSAIRKAAVTAALGDAAVRDKADAYIDARFDILVEDAAKKSGGADPFRQVVQNGLQTADNTNGAAAAHNAMVRDMSSAWMMKKEA”, the “soluble on expression in E. coli” value is recorded as “not soluble”.

As for “MLSKKRSMSFAKRTLLSVSLSLVSGLSFAKMYELPEDGSRLIGRLENHVVQQGETMANIAKHYDVGMLALMAANKGVDPFLPQEGRVLTIPSQLILPEVPHQGIVINLAELRLYYFPEGEDVVHVFPVGIGRIGRDTPVMTTSISQKRPNPTWTPPASIRAEYRAKGVDLPAVVPAGPDNPLGLFALRLAYGNGEYLIHGTNKDFGIGMRVSAGCIRMDPSDIEWLFDKVRRGEKVNIINQPVKVSLEPDRSVFVEAHEPLTRSNGEKDHLQVPKELGWWLNEFGLTNVKAKAVIAAQNGVPVEITAP”, the “soluble on expression in E. coli” value is “not soluble”.

With “MSCALLIENLTCQYDAQTVLKSLSLQVNPGEIVCLLGASGCGKTTLLKAIAGLLPLASGQLSLNCVTLDDGKRWLPPEQRNIGMIFQDYALFPHLTVAQNVGFGLDAMPAKQKEAKIAEMLALVHLDAFAERYPHQLSGGQQQRVAIARALAYKPDLLLLDEPFSNIDTQVRHELIIEIRKIFKQQGVTAIFVTHSREEAFAFADKMAVMNRGVIEQYGTAAELYYQPSSQFVADFLGGGSYLSAKRISETQYQTALGVVEAIARQPIAVEAECKLLLRPQQVQIRAEEESSVTVTEQQFMGDHCRYLIDAHGTQLIATSSQPLELGQAVSVNIDTQGVLAFA”, the “soluble on expression in E. coli” value is recorded as “not soluble”.

For “MVCWSSHTASKQGNLMNQFYVHVRLFEDTAEQTKKFEELMLNFLYQKTVKESDDSCCRLIPEGYILKSTMNCQQILDQTFSIANSAGVDANIFVCKFEQSACLLPSASLVGNDFVHYDLTPKPIKLDS”, the “soluble on expression in E. coli” value is “not soluble”.

As to “MASGPHSTATAAAAASSAAPSAGGSSSGTTTTTTTTTGGILIGDRLYSEVSLTIDHSLIPEERLSPTPSMQDGLDLPSETDLRILGCELIQAAGILLRLPQVAMATGQVLFHRFFYSKSFVKHSFEIVAMACINLASKIEEAPRRIRDVINVFHHLRQLRGKRTPSPLILDQNYINTKNQVIKAERRVLKELGFCVHVKHPHKIIVMYLQVLECERNQTLVQTAWNYMNDSLRTNVFVRFQPETIACACIYLAARALQIPLPTRPHWFLLFGTTEEEIQEICIETLRLYTRKKPNYELLEKEVEKRKVALQEAKLKAKGLNPDGTPALSTLGGFSPASKPSSPREVKAEEKSPISINVKTVKKEPEDRQQASKSPYNGVRKDSKRSRNSRSASRSRSRTRSRSRSHTPRRHYNNRRSRSGTYSSRSRSRSRSHSESPRRHHNHGSPHLKAKHTRDDLKSSNRHGHKRKKSRSRSQSKSRDHSDAAKKHRHERGHHRDRRERSRSFERSHKSKHHGGSRSGHGRHRR”, the “soluble on expression in E. coli” value is given as “not soluble”.

With “MSLTPEHLPTEQYEAQLAEKVVRLQSMMAPFSDLVPEVFRSPVSHYRMRAEFRIWHDGDDLYHIIFDQQTKSRIRVDSFPAASELINQLMTAMIAGVRNNPVLRHKLFQIDYLTTLSNQAVVSLLYHKKLDDEWRQEAEALRDALRAQNLNVHLIGRATKTKIELDQDYIDERLPVAGKEMIYRQVENSFTQPNAAMNIQMLEWALDVTKGSKGDLLELYCGNGNFSLALARNFDRVLATEIAKPSVAAAQYNIAANHIDNVQIIRMAAEEFTQAMNGVREFNRLQGIDLKSYQCETIFVDPPRSGLDSETEKMVQAYPRILYISCNPETLCKNLETLSQTHKVERLALFDQFPYTHHMECGVLLTAKEGHHHHHH”, the “soluble on expression in E. coli” value is listed as “soluble”.

For “MQLSKFFQKPQLLFRVAQPKDKENILKFLDAHFAKEEPCARALKLSPETSRGIFTTTVTRCLNFPFSTVVLQENDEIAACLLASVWNRTDPIDSADFNSSGMPENLKLFVQFINSAHSNFWKIAPPNVNSIIHREIGSVAPQFTRKGIATRMVTTNMTKTNLKKYNIGGVLSETSSLANQIVLQKAGFKCLKELPYSAIVDSKGNRVLRPDDGTTSLCLNFKPIEEYENLPE”, the “soluble on expression in E. coli” value is listed as “not soluble”.

Consider “MANYPKELPAQTQSRQPGIESEMNPSPVYEYEDYKGADKLKGKVALITGGDSGIGRAVSVAYAKEGADIAIVYKDEHEDAEETKKRVEQEGVKCLLIAGDVGEEEFCNEAVEKTVKELGGLDILVNNAGEQHPKESIKDITSEQLHRTFKTNFYSQFYLTKKAIDYLKPGSAIINTTSINPYVGNPTLIDYTATKGAINAFTRTMAQALVKDGIRVNAVAPGPIWTPLIPATFPEETVAQFGQDTPMGRPGQPVEHVGCYVLLASDESSYMTGQTLHVNGGNFVT”, for which the “soluble on expression in E. coli” value is given as “soluble”.

On to “RTDTIMVLHMPRTGEPTLLSIPRDSYVNVPGWGMDKANAAFTVGGPELLTQTVEEATGLRIDHYAEIGMGGLANMVDAVGGVEMCPAEPMYDPLANLDIQAGCQEFDGAAALGYVRTRATALGDLDRVVRQREFFSALLSTATS”, for which the “soluble on expression in E. coli” value is listed as “not soluble”.

Take “MTQIVVGENEHIESALRRFKREVSKAGIFQDMRKHRHFETPIEKSKRKKLALHKQSKRRFRTLEHHHHHH”: the “soluble on expression in E. coli” value is listed as “not soluble”.

In the case of “MEFAGTIFIELTFTPKVPRLNRDDLNKEMDRLDSSMAMRPIPPLPTESEYDYVHGSTMRQITPQCVSTSHEDKDEGQPYRNGNVFSMSSKSDTAVLANSNDPIILPPTFSASMGTTSTLETNDTAISNTSNTKFHFANLRKLKEKINIFKNPDSST”, the “soluble on expression in E. coli” value is “not soluble”.

As to “MDNIQQEKLKNLIRSLEKSASPQEAEYLMGEILVPLLAEDGYSIQAVGDQRDFGVDFIARKDKHEEQFPEEIAIEYKHYRKAAVGLDVVHRVLGAAMSMGLSRAMVITNSRFTYAAREAIRRSSPVGVELLDIDALRSWIGRIEEVPSIDVVQVNIIRREFSRRLIELILKNPRYLDEIEWREMERLLAEVFEGLGFSVRLTPGSKDGGKDIILTCQVATKNHTYYVEVKHWRSGQRVGSGAITEFLNVIINEQIDGGLYLSTYGYCSNSIESLTEIQRKSLRFGTENKVVTLCQSYVKAMSGIWAPDKLLPEVLYDNTL”, the “soluble on expression in E. coli” value is “not soluble”.

On to “MGSDKIHHHHHHMDDLRDSLDRIKSICSEIVVQFESSDVAESLKALQKAVNEAAKSWSGSWLGYHSRVYYNQLQPVPPGARFSQEWGLSDGLSNETRGDWCEYDFDSIYNILKSKAINFSLEQLNELANYANEEIPDLREELISIIFSCLASGEDTYLDRLKQEAELCKTSSVGEFVDYLRGGGQFFSRDRVAVLSGSQTPPHIYLQAQLLAVQSPSTVAKSLKKIANRLALHLTNKSRTYMYSSQPGTHVFIGHGHSPLWRDLKDFISERLKLPWDEFNRLPIAGINNTVRLSQMLDSAAIAFLIMTGEDEQSDLKLRARMNVIHEAGLFQGRLGFRRAILLLEEGCENFSNVDGIGYINFPRGNIKACFEDVRMVLEREGLV”, for which the “soluble on expression in E. coli” value is reported as “not soluble”.

In the case of “IGDVNLTLRGNFTYSKSEILEYDEEYSNYPYKSQRGFRVDQTRGLIALGLFKDYDDIRNSPKQSWGDVMPGDIKYADVNGDGYVNDNDIVPIGATTRPNLVYGFGLSGQWKGIDINVLFQGSGKSTFCIDGPTVYPFENGDWGNILTDVVKSNRWILGENEDPNAKYPRLSYGGNSNNYRASTYWLRNGSYLRLKNLEIGYTIPKSLVNKMHLNNIRIYFMGTNLVTFSSFKLWDPELGSSNGQKYPLSKSYTLGLTINI”, the “soluble on expression in E. coli” value is “not soluble”.

“MGSDKIHHHHHHMSISQMQVFNKYFMPAIIETLGQQIQKFNAASRGAIMLTTAGFEGDFLQESFYQAIHGARRRVDRYAANGSASPTDLTQLKHSSVKVAGGFGPIRYEPSQMTWLEKPTAEGIEVASRHFAEALLQDQLNTAIAALVAAISNQALATVNVSAKTGLNYSVLNDAHAKFGDSSGLIVANVMSGQVYHKLIGQNLVNAQQLFEYGAVTVVDILGKTVVVTDAPALYATGTPNLQKVLGLVAGAATVSDGGDLITNIETSNGKERIETTFQADYTFGLGLKGYTWDEATGGKSPTDAELATGTNWDKVATDIKHTAGVIAIGDASK”: the “soluble on expression in E. coli” value was “not soluble”.

“MLNSWPLAKDLQVLVEIVHSGSFSAAAATLGQTPAFVTKRIQILENTLATTLLNRSARGVALTESGQRCYEHALEILTQYQRLVDDVTQIKTRPEGMIRIGCSFGFGRSHIAPAITELMRNYPELQVHFELFDRQIDLVQDNIDLDIRINDEIPDYYIAHLLTKNKRILCAAPEYLQKYPQPQSLQELSRHDCLVTKERDMTHGIWELGNGQEKKSVKVSGHLSSNSGEIVLQWALEGKGIMLRSEWDVLPFLESGKLVQVLPEYAQSANIWAVYREPLYRSMKLRVCVEFLAAWCQQRLGKPDEGYQVM”: the “soluble on expression in E. coli” value is “soluble”.

For “MGSDKIHHHHHHMATQRGTTAPPQTGSEQTGSVAGAGNARASLGVDGAVRLATSSVTTQSYAREFARLFNVDTAHTLTTTSLKTAQLTATHMCSSVHGLGKSTPLPTEDAYILSLQLQHSGGAELWKRGRRVPTEPYAPGSIMLGHLSDEPVANLPDPFECILFHIPRPAFDELCGLSALPPVGELDDVNRTIDPVLHHLGLALVPAMADPQLAGSLFFDHVAHAMYERLATTYGRFRGTLPPRGRVLSKTQERIAKELLVADLLVEPPLSDIALACGLSVRQFVDAFRSTTGMPPFRWLRAYRIERAKELLRRTSFSLAEIGAACGFADQSHFTRTFSAATGTTPGDWRRACGA”, the “soluble on expression in E. coli” value was “not soluble”.

For “MGSDKIHHHHHHMLHFKHSSVINATPEVVWKFHERPDILQLLNPPWQPVQVVRREGGLNVGAITEFRLFLGPLPLTWLARHTECDKYRLFTDEQISGPFESWVHRHEFEPEAGKTRLTDAISFSMPGGETVEFVSGWLVQVQLEAMFRYRHYVTKRECESQ”, the “soluble on expression in E. coli” value is on record as “not soluble”.
